Experiment [1] addresses T1, IDH1 R132H突变抗原多肽 (编号 U6184CB080-D).
T1 sequence (peptide): KPIIIGHHAYGDQYC
In words: SPR, Biacore 8k, peptide on CM5 chip; reference H09. In general terms: SPR reads the build-up and loss of mass on a sensor chip optically.

The target of experiment [2] is T2, IDH1 R132H (mutant IDH1 in glioma tissue sections) (UniProt O75874 2-414).
T2 construct: Endogenous protein in patients' glioma paraffin sections; also called IDH1突变; IDH1 R132H突变
In words: immunohistochemistry on glioma paraffin sections.

The target of experiment [3] is T3, IDH1野生型 (wild-type IDH1 in glioma tissue sections) (UniProt O75874 2-414).
T3 construct: Endogenous protein in patients' glioma paraffin sections; also called IDH1 R132H焦磷酸测序野生型样本; 不携带IDH1 R132H突变的胶质瘤样本
The experiment is described as follows: immunohistochemistry on glioma paraffin sections.

T3 sequence (O75874 2-414 limits assumed): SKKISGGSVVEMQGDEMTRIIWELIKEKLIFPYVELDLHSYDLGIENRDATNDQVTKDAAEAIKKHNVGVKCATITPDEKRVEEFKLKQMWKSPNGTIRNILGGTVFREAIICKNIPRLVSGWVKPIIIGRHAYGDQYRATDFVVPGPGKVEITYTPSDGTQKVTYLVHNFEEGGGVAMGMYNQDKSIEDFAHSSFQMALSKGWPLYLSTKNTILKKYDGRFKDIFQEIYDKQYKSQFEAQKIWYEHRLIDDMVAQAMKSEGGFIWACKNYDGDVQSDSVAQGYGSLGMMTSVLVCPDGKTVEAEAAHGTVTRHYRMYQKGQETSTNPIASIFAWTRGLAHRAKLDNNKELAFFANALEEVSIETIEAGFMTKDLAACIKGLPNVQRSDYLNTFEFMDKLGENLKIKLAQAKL
T2 sequence (O75874 2-414 R132H limits assumed): as the sequence (O75874 2-414 limits assumed) above, with R131H counted along it

B1: 10G5-1单克隆抗体 (anti-IDH1 R132H monoclonal antibody secreted by hybridoma 10G5-1, CGMCC No.15783) (antibody, V domains shown)
VH: QVQLQQPGTELVKPGASVHLSCKASGYTFTTYWMHWVKQRPGQGLEWIGDINPSNGETYYNEKFRNKATLTVDKSSRTAYMHLSSLSSEDSAVYYCARGFKDYWGQGTTLTVSS
VL: DVLMTQTPLSLPVSLGDQASISCRSSQTILYSDGVTYLEWYLQKPGQSPKLLIYKVSSRFSGVPDRFSGSGSGTDFTLKISRVVAEDLGIYYCFQGSHVPFTFGSGTKLEIK
notes: Mouse (BALB/c) hybridoma antibody purified on protein A; also called 10G5-1抗体; 1OG5-1抗体
In turn, B1 showed a fold lower 亲和力平衡常数 (KD) against H09 in experiment [1] of 10 fold. For the same molecule, the results for the binding result in experiment [2] and in experiment [3] were “binds” and “no binding”, respectively.

The record behind these values is patent CN108948205A (BEIJING JINDAI BIOTECHNOLOGY CO LTD, dated 2018).
